The target of assay [1] is SMYD2-F184A (human) (UniProt Q9NRG4). In words: ELISA; inhibition: SMYD2 proteins pre-incubated with varying concentrations of the PARP1 peptide, then added to wells coated with PARP1(518-1014), H3 or H4; four-parameter logistic fit. On the technique in general: In an ELISA, binding on a coated surface is turned into a signal by an enzyme label.
Assay [2] has the same target. In words: ITC; NanoITC SV, 27°C, 25 mM Tris pH 7.5, 50 mM NaCl; 40 μM SMYD2 in the cell, 631 μM PARP1 peptide in the syringe, 16 injections of 15 μL; one-site, two-site and binding polynomial models.

In general, IC50 refers to the point on the concentration scale where inhibition reaches its midpoint. The stoichiometry N is a count of units in the complex or per binding partner.

Sequence of SMYD2-F184A (human) (Q9NRG4 whole entry F184A): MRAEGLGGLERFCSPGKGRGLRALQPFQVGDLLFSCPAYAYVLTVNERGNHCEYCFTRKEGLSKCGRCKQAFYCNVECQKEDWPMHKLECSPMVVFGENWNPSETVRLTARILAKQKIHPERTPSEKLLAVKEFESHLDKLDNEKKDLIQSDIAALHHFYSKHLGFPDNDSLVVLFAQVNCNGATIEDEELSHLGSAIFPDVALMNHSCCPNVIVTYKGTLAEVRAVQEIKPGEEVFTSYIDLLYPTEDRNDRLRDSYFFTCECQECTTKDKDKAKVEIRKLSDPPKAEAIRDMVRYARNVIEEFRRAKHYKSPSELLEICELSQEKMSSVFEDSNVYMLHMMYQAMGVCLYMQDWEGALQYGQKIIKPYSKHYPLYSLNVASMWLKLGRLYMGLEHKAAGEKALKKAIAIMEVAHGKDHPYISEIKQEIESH

In the case of “PARP1 peptide (13-residue synthetic peptide, human PARP1 residues 522-534)”, the IC50 in assay [1] came to 153 nM. In addition, the stoichiometry N in assay [2] worked out at 1.

These data come from publication doi:10.1101/2024.12.03.626679, “Structure of the SMYD2-PARP1 Complex Reveals Both Productive and Allosteric Modes of Peptide Binding” (bioRxiv, 2024).
